A word on the EC50: it is the concentration at which the effect is half-maximal. By Kd is commonly meant a measure of binding affinity in units of concentration. A lower Kd goes with a tighter complex. The term IC50 denotes the concentration that gives 50% inhibition. A higher IC50 goes with lower potency.

Test [1] addresses T1, human TIM-3 ECD with 6-His tag (hu TIM-3-His6) (human, UniProt Q8TDQ0 22-200).
T1 construct: Novoprotein Cat# C356; the entry includes the His tag; also called hTIM3-His; human TIM3-His6
Put plainly: SPR (Biacore), relative to 3903E11 (VH1.0, VL1.0). In general terms: In SPR one partner is held on a chip, and binding of the other changes the refractive index at the surface.

Test [2] concerns the target T2, human TIM-3 on huTIM-3-CHO-S cells (human, UniProt Q8TDQ0 22-202).
T2 construct: Membrane-anchored human TIM-3 ECD (NP_116171) stably expressed on CHO-S cells; also called CHO-S-hTIM3; CHO-S-hTIM-3; not shown: membrane anchor of the expression vector, not described
Put plainly: FACS on CHO-S-hTIM-3 cells.

The target in test [3] is T2, human TIM-3 on huTIM-3-CHO-S cells. Put plainly: flow cytometry on CHO-S-hTIM3 cells. (Flow cytometry measures light scatter and fluorescence of single cells or particles in a stream.)
The target in test [4] is T3, cyno TIM-3 on cynoTIM-3-Expi293F cells (cynomolgus monkey).
T3 construct: Membrane-anchored cyno TIM-3 ECD (XP_005558438) transiently expressed on Expi293F cells; not shown: membrane anchor of the expression vector, not described
T3 chain: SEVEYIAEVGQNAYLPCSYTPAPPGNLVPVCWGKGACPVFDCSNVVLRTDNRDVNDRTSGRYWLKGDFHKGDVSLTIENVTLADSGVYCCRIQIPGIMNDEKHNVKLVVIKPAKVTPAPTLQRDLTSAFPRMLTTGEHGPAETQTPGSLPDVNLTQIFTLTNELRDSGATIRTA
Put plainly: flow cytometry on 293F-cynoTIM-3 cells.

Test [5] has as its target T2, human TIM-3 on huTIM-3-CHO-S cells. Put plainly: cell-based or functional assay.
Test [6] addresses T4, cyno TIM-3-His6 (cynomolgus monkey).
T4 construct: Made in HEK293 cells; not shown: 6-His tag
T4 chain: T3 chain
Put plainly: SPR (Biacore).

Test [7] addresses T1, human TIM-3 ECD with 6-His tag (hu …). Put plainly: SPR (Biacore).
In test [8] the target is T4, cyno TIM-3-His6. Put plainly: SPR, antibody captured, TIM-3 as analyte.
In test [9] the target is T1, human TIM-3 ECD with 6-His tag (hu …). Put plainly: SPR, antibody captured, TIM-3 as analyte.
The target in test [10] is T4, cyno TIM-3-His6. Put plainly: ELISA, antigen coated. A general note: ELISA stands for enzyme-linked immunosorbent assay.
Test [11] deals with T1, human TIM-3 ECD with 6-His tag (hu …). Put plainly: ELISA, antigen coated.
The next test has as its target T5, cyno TIM-3-muFc (cynomolgus monkey).
T5 construct: Made in HEK293 cells; also called cyno TIM3-mFc; not shown: murine Fc
T5 chain: T3 chain
Put plainly: ELISA, antigen coated.

The target in a further test is FcRn (UniProt P55899 24-297; P61769 21-119, limits assumed). Put plainly: BLI (Octet), steady state.
Test [12] addresses T6, human TIM-3 ECD fused to human IgG1 Fc domain (huTIM-3-Fc) (human, UniProt Q8TDQ0 22-202).
T6 construct: extracellular domain; Bought; Biotinylated (Sulfo-NHS-LC-Biotin) in the galectin-9 ELISAs; also called Human-TIM3-biotin; huTIM-3-Fc-biotin; not shown: human IgG1 Fc domain
Put plainly: competition ELISA: huTIM-3-Fc-biotin (0.5 µg/ml) binding to coated galectin-9.

The target in another test is T7, FCγRI (CD64) (UniProt P12314 16-288).
T7 construct: Bought
Put plainly: BLI (Octet), antibody on FAB2G tips.

For a further test, the target named is T8, FCγRIIIa (CD16a)_V158 (UniProt P08637 17-208).
T8 construct: Bought
Put plainly: BLI (Octet), antibody on FAB2G tips.

A further test addresses T9, FCγRIIa (CD32a)_H131 (UniProt P12318 36-218, limits assumed).
T9 construct: Bought
T9 sequence (looked up): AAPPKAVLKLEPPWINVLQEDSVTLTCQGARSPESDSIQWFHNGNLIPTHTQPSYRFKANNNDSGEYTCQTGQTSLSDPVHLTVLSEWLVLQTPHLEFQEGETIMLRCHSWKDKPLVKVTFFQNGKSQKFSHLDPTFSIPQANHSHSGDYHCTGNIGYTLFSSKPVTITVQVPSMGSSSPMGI
Put plainly: BLI (Octet), antibody on FAB2G tips.

In test [13] the target is T10, wild-type TIM-3 (hu TIM-3), HEK-expressed (human, UniProt Q8TDQ0 22-202, limits assumed).
T10 construct: Soluble protein of the mutagenesis study
Put plainly: SPR.

Test [14] addresses T10, wild-type TIM-3 (hu TIM-3), …. Put plainly: SPR. The source holds these as a separate data set.
Test [15] concerns the target T6, human TIM-3 ECD fused to human IgG1 Fc …. Put plainly: ELISA: plate-bound rhTIM-3-Fc pre-incubated with antibody, His-tagged CEACAM1 detected.

Changes are numbered by the printed parent chain. Numbers in names are those of the source. Where “and” joins values, the source holds several entries; their conditions need not be identical. Equal values may be shown once. Read-outs that look alike come from different tables or passages of the source.

B1: Parental Antibody 3903E11 (VL1.0, VH1.0) (antibody, human IgG1, lambda)
heavy: not shown
light: SYELTQPRSVSGSPGQSVTISCTGTSSDVGGYNYVSWYQQHPGKAPKLMIFDVSKRPSGVPDRFSGSKSGNTASLTISGLQAEDEADYYCSSYADSVVFGGGTKVTVLGQPKAAPSVTLFPPSSEELQANKATLVCLISDFYPGAVTVAWKADSSPVKAGVETTTPSKQSNNKYAASSYLSLTPEQWKSHKSYSCQVTHEGSTVEKTVAPTECS
notes: Human IgG1 (IgG1m3), lambda light chain; also called 3903E11 (VH1.0, VL1.0)
Turning to B1, in test [1], the “Human TIM3 KD Ratio to Parent” value is 1. The “MFI at 0.1 µg/ml” value in [2] came out at 137 MFI. For the same molecule, the “MFI at 1 µg/ml” value in test [2] worked out at 1390 MFI. Also, the “MFI at 10 µg/ml” value in test [2] was 1490 MFI. In addition, the EC50 in [3] was 0.9 nM; in test [4] it was 2 nM; in the test with cyno TIM-3-His6 [10], 0.01 nM; in test [11], 0.01 nM; with cyno TIM-3-muFc, 0.01 nM. Further, the “ADCC (51Cr release), Donor 1, EC50” value in test [5] was 0.24 nM. In [5], the “ADCC (51Cr release), Donor 2, EC50” value was found to be 0.11 nM. In addition, the Kd with cyno TIM-3-His6 [6] turned out to be 6.9 nM; in test [7], 3.5 nM; with cyno TIM-3-His6 [8] it was 12 nM; in test [9], 3.8 nM.

B2: anti-TIM-3-3903E11(VL1.3,VH1.2)-IgG2h(FN-AQ,322A)-delK (antibody)
heavy: not shown
light: B1 light with S1Q, Y2S, E3A, F51Y
notes: Effector-negative engineered IgG2 with IgG1 hinge (C220S), F296A, N297Q, K322A, C-terminal Lys deleted; lambda light chain; also called M6903; copies: 2 + 2
For the molecule B2, the Kd in the test with FcRn is 850 nM; in test [13], 5.7 nM; in test [14] it was 6.2 nM. Further, the IC50 in test [12] was 7.46 nM; in test [15], 0.353 nM and 0.053 µg/mL. Moreover, the binding result is given as “no binding (tested: 100 nM to 1.56 nM)” with FCγRI (CD64), “no binding (tested: 4000 nM to 62.5 nM)” with FCγRIIIa (CD16a)_V158 and “no binding (tested: 4000 nM to 62.5 nM)” with FCγRIIa (CD32a)_H131.

The values above are taken from US20220081480A1 (Merck KGaA, published 2022).
